Assays:
[1] = target: tES-GFPuv, GFPuv fused to the C-terminus of a histidine-tagged tES subunit (Archaeoglobus fulgidus | not stated) (UniProt O29424); test: pull-down + SEC; tES(+) and His-tagged tES-POI coexpressed in E. coli BL21(DE3); Ni-NTA by the His tag of the fusion subunit, then SEC (25 mM Tris-HCl, pH 8); ratio by gel densitometry of purified fractions
[2] = target: tES-HRPc, truncated horseradish peroxidase fused to the C-terminus of a histidine-tagged tES subunit (Archaeoglobus fulgidus | horseradish) (UniProt O29424); test: as above
[3] = target: tES-rLuc, Renilla luciferase fused to the C-terminus of a histidine-tagged tES subunit (Archaeoglobus fulgidus | Renilla) (UniProt O29424); test: as above
[4] = target: tES-GFPuv, GFPuv fused to the C-terminus of a histidine-tagged tES subunit (Archaeoglobus fulgidus | not stated) (UniProt O29424)

| stoichiometry N (tES subunits per tES-POI fusion subunit) [1] | stoichiometry N (tES subunits per tES-POI fusion subunit) [2] | stoichiometry N (tES subunits per tES-POI fusion subunit) [3] | GFPuv fluorescence after in vitro folding; molar ratios of tES(+)F116H subunits to tES-GFPuv from 0:1 to 90:1, highest at 90:1 [4] | Substance |
| --- | --- | --- | --- | --- |
| 32 | 19 | 20 | – | tES(+) thermostable exoshell subunit, net positive cavity (from UniProt O29424 1-164) |
| – | – | – | 100 fold | tES(+)F116H, pH-titratable exoshell subunit (from UniProt O29424 1-164) |

Reference: publication PMC5682286
